This note sets out measurements from paper PMC2884070.

This test has as its target GST-CypA (cyclophilin A) (human) (UniProt P62937). Nature of the test: radioligand binding.

Sequence of GST-CypA (cyclophilin A) (human) (P62937 whole entry): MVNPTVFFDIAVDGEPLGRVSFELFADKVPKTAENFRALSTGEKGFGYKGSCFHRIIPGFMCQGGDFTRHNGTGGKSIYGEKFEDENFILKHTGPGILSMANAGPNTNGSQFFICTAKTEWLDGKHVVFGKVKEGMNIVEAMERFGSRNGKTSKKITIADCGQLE

Turning to “full-length NS5A MD2b-1-His (genotype 2b) (natural protein)”, the Kd (in general, the free concentration of one partner at which half of the binding sites on the other are occupied at equilibrium, for simple one-to-one binding) is 112 µM.
In turn, “NS5A Con1 D320E-His (full length) (natural protein)” showed a Kd of 124 µM.
